# B1: C7-ABS-RAGE IgG (human IgG1) (antibody, V domains shown)
# VH: EVQLVESGGGLVQPGGSLRLSCAASGFTFSSYWMSWVRQAPGKGLEWVASIDQDGSNKYYPDSVKGRFTISRDNAKNSLYLQMNSLRAEDTAVYYCARGGDITTGLDYWGQGTLVTVSS
# VL: DIQMTQSPSSLSASVGDRVTITCRASQSIGSYLNWYQQKPGKAPKLLIYRASSLASGVPSRFSGSGSGTDFTLTISSLQPEDFATYYCLEFDEHPLTFGGGTKVEIK
# notes: Human IgG1 format
# Experiments:
# [1] = target: T1, RAGE (cognate target of the anti-RAGE antibodies; species not stated at the place) (Homo sapiens (Human), UniProt Q15109 23-342); assay: Biacore T-200 SPR, IgG immobilised (~100 RU), purified target protein injected
# T1 construct: not shown: Carrier or tag of the soluble construct
# Protocol: (§1) Biacore analysis was performed using the T-200 biosensor, series S CM5 chips, an amine-coupling kit, 10 mM sodium acetate immobilization buffer at pH 5.0, 10×HBS-P running buffer and NaOH for regeneration (GE Healthcare). Kinetic assay conditions were established to minimize the influence of mass transfer, avidity and rebinding events. A predefined ligand immobilization program was set up to immobilize approximately 100 Response Units (RU) of IgG on the chip. Purified target proteins were diluted in HBS-P running buffer to a range of final concentrations and injected at 50 μl/min for 3 mins. Dissociation was allowed to proceed for 10 min followed by a 5 sec pulse of 20 mM NaOH for regeneration of the chip surface. All sensorgrams were analyzed using the Biacore T-200 evaluation software.
# mRAGE = target: T2, mRAGE (mouse, UniProt Q62151 24-342, limits assumed); assay: Biacore specificity assay: IgG immobilised (about 300 RU), antigen m-RAGE-fc injected at 500 nM
# T2 construct: also called mouse RAGE
# Protocol: (§2) Biacore specificity analyses were performed using the T-200 biosensor, series S CM5 chips, an amine-coupling kit, 10 mM sodium acetate immobilization buffer at pH 5.0, 10× HBS-P running buffer and NaOH for regeneration (GE Healthcare). A predefined ligand (IgG) immobilization program was set up to immobilize approximately 300 Response Units (RU) on the flow cell for each IgG to be tested. For Anti-RAGE and anti-A33, a panel of fully-purified recombinant target and non-target antigens were diluted in HBS-P running buffer to a final concentration of 500 nM. Four groups of antigens were examined, including: cell membrane proteins (mTRKB, hTRKB, mEGFR, hEGFR, hFceR1, hIL-21R, mICAM1, mICAM2, hICAM1, hCD33, hLAMP-1, hLOX-1, and), soluble signaling molecules (mTNFa, hVEGF, hCXCL13) and albumins (BSA, HSA and MSA). These proteins were injected at 50 μl/min for 3 min, followed by a 5 sec pulse of 20 mM NaOH for regeneration of the chip surface. For pTau, a series of pTau-derived phosphorylated and non-phosphorylated peptides were flowed, as in Shih et al.³. All sensorgrams were analyzed using the Biacore T-200 evaluation software.
# [2] = target: T1, RAGE (cognate target of the anti-RAGE …); assay: Biacore SPR
# Protocol: ABS leads in human IgG1 format were analyzed for specificity and stability.
# as §1
# hICAM1 = target: T3, hICAM1 (human, UniProt P05362 28-480, limits assumed); assay: Biacore specificity assay: IgG immobilised (about 300 RU), antigen injected at 500 nM
# T3 construct: Non-target panel protein
# Protocol: as §2
# mEGFR = target: T4, mEGFR (mouse, UniProt Q01279 25-647, limits assumed); assay: as above
# T4 construct: Non-target panel protein
# Protocol: as §2
# hEGFR = target: T5, hEGFR (human, UniProt P00533 25-645, limits assumed); assay: as above
# T5 construct: Non-target panel protein
# Protocol: as §2
# BSA = target: T6, BSA (UniProt P02769 25-607); assay: as above
# T6 construct: Non-target panel protein (albumins)
# Protocol: as §2
# hLOX-1 = hLOX-1 (human, UniProt P78380 61-273); assay: as above
# Protocol: as §2
# T1 sequence (Q15109 23-342 limits assumed): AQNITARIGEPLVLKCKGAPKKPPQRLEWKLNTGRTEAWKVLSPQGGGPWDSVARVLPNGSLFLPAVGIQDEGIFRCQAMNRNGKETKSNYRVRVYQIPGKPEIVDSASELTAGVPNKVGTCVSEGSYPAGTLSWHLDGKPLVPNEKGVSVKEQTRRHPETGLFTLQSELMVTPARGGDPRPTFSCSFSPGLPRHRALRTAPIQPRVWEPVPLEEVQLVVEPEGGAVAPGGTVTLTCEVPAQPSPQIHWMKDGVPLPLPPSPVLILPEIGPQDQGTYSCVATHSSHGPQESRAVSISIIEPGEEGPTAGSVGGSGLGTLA
# T6 sequence (P02769 25-607 limits assumed): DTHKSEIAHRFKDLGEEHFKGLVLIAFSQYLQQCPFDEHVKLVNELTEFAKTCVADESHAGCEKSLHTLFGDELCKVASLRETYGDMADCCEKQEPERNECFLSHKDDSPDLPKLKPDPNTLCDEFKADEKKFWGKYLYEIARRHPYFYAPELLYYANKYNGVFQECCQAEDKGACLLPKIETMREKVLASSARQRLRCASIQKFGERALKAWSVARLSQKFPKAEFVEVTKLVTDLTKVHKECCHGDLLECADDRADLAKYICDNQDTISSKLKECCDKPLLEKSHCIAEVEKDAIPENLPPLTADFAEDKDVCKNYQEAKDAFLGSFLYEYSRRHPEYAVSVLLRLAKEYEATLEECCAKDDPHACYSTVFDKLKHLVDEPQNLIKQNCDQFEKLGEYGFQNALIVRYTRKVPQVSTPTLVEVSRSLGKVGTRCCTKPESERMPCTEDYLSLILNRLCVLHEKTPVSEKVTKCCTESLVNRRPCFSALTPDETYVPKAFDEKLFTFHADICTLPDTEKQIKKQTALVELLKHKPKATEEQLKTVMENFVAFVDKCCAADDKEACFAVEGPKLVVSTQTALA
# T3 sequence (P05362 28-480 limits assumed): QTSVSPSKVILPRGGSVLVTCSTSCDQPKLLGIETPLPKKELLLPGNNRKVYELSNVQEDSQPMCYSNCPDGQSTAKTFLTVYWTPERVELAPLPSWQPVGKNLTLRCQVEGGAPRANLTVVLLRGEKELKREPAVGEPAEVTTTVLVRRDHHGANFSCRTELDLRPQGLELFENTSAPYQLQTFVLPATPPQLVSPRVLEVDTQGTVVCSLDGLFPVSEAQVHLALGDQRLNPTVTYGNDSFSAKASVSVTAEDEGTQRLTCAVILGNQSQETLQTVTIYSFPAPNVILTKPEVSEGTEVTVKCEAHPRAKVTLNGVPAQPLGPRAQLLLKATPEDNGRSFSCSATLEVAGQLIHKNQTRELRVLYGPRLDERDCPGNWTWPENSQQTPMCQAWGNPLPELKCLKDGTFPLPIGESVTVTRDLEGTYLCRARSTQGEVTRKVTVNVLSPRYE
# T2 sequence (Q62151 24-342 limits assumed): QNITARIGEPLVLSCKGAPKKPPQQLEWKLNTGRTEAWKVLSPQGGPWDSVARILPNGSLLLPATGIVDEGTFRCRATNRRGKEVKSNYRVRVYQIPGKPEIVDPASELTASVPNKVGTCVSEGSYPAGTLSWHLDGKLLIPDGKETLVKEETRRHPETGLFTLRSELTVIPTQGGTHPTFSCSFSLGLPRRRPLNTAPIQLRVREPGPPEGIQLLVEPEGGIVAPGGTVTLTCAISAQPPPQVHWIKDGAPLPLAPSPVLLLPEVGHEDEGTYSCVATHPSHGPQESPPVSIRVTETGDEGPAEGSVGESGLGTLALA
binder,measurement,setting,value
B1,Kd,[1],17 nM
same,binding result,mRAGE,binds
same,fold affinity improvement over Par-RAGE,[2],~2 fold
same,binding result,hICAM1,no binding (tested: 500 nM)
same,binding result,mEGFR,no binding (tested: 500 nM)
same,binding result,hEGFR,no binding (tested: 500 nM)
same,binding result,BSA,no binding (tested: 500 nM)
same,binding result,hLOX-1,no binding (tested: 500 nM)

# Reference: US20170073395A1 (Pfizer, published 2017)
